From patent US9290794B2, “Mutant protease biosensors with enhanced detection characteristics” (PROMEGA CORPORATION, priority 2010, dated 2016) come the findings set out here.

For this series, the system named is caspase-3. The experiment in a line: CBS variants transiently transfected in HEK293 cells, kinetic luminescence response to TRAIL treatment. In kind it is cell-based. The following applies: for RESPONSE, IMPROVEMENT OVER TL-CP358-DEVD:DD: ratio of INDUCED to BASAL; for BASAL, IMPROVEMENT OVER TL-CP358-DEVD:DD: time (0); for greater RESPONSE compared with TL-CP358-DEVD:DD: live cells (FIGS. 2, 3). The text has this:
The Caspase-3 BioSensor (CBS) is a thermostable Photuris pennsylvanica luciferase (TL), circularly-permuted (CP) at amino acid 358, with a caspase-3 recognition site, i.e., one containing the caspase-3 recognition site comprising amino acids DEVD, at the junction between the TL fragments. The specific CBS that was used as the starting template is termed TL-CP358-DEVD:DD. The amino acid sequence of this CBS can be represented as: M/TL residues 358-544/SDEVDGSL/TL residues 4-354/V (SEQ ID NO:6). The amino acid positions in the CP TL correlate to those of the non-CP TL sequence (provided in the attached appendix). Upon treatment with caspase-3, CBS is cleaved at the recognition site allowing the two TL fragments to form a more favorable, higher activity, conformation.
The utility of CBS is the differential activity before and after cleavage by caspase-3. The basal activity of CBS is defined as the activity at assay time (O), before caspase-3 has had time to cleave at the recognition site. The induced activity is defined as the activity at some later time (t) after CBS has been cleaved by caspase-3. The response or fold increase in activity, is the ratio of induced to basal activity. Substitutions in TL-CP358-DEVD:DD were generated to develop CBS variants with enhanced responsivity to induction using the error-prone, mutagenic PCR-based system GeneMorph II (Stratagene; Daugherty, PNAS USA 97(5):2029 (2000)), according to manufacturer's instructions.
The resulting library was expressed in E. coli and screened for luciferase activity with and without pre-treatment with recombinant caspase-3 (data not shown). CBS variants having the best signal and response characteristics were then evaluated in HEK293 cells by kinetic assay measuring the response to TNF-α-related apoptosis inducing ligand (TRAIL) treatment (Wiley, S. R. et al., Immunity 3:673 (1995); Niles, A. L. et al., Meth. Mol. Biol. 414:137 (2008)). TRAIL induces apoptosis via activation of the death receptor to form active caspase-8, which in turn activates procaspase 3 to produce caspase-3. The appearance of active caspase-3 should be accompanied by an increase in luminescence as the CBS variants are cleaved and activated. Briefly, HEK293 cells, plated at 15,000 cells/well in a 96-well plate, were transiently transfected using TransIT-LTI (Mires Bio) with plasmid DNAs encoding various CBS variants with amino acid substitutions in TL-CP358-DEVD:DD. The same plasmids also carried a gene for constitutive expression of Renilla luciferase to act as a transfection control. Cells were pretreated with 2 mM luciferin for 2 hrs at 37° C. Cells were treated with 1 μg/mL TRAIL and assayed for 10 hrs at 37° C. Luminescence was monitored continuously over time (Luminometer: Varioskan Flash (Thermo) 1 sec integration time). Cells in replicate wells were lysed, at the time of TRAIL addition, i.e., time (0) and Renilla luciferase activity was measured. All biosensor data was then normalized for transfection efficiency using Renilla luciferase luminescence (Dual-GloAssay System; Promega Corporation).
Table 1 lists the variants of TL-CP358-DEVD:DD, identified by clone name, showing improved response to TRAIL treatment. Improvements listed in Table 1 are normalized to the parental TL-CP358-DEVD:DD CBS. “BASAL” represents the normalized biosensor luminescence at TRAIL addition, i.e., time (0), “INDUCED” represents the normalized biosensor luminescence at roughly 10 hrs after TRAIL addition, and “RESPONSE” represents the fold-induction, i.e., the ratio of INDUCED to BASAL activity.
Additional CBS variants were generated using the oligo-based site-directed mutagenesis kit Quik Change (Stratagene; Kunkel, PNAS USA 82(2):488 (1985)), according to the manufacturer's instructions. […]

[1] abbreviates: Table 2 combination variants, roughly 10 hrs after TRAIL, HEK293.
Where [2] appears, read: Table 2 combination variants, HEK293 as in Example I.

B1: 01:A-05: CBS variant of TL-CP358-DEVD:DD, 507TI (SEQ ID NOs:7 and 8) (protein)
chain: MPGSTGKIVPLHAVKVVDPTTGKILGPNEPGELYFKGPMIMKGYYNNEEATKAIIDNDGWLRSGDIAYYDNDGHFYIVDRLKSLIKYKGYQVAPAEIEGILLQHPYIVDAGVTGIPDEAAGELPAAGVVVQTGKYLNEQIVQDYVASQVSIAKWLRGGVKFLDEIPKGSTGKIDRKVLRQMLEKHTNGSDEVDGSLKNILYGPEPFYPLEDGTAGEQMFDALSRYAAIPGCIALTNAHTKENVLYEEFLKLSCRLAESFKKYGLKQNDTIAVCSENSLQFFLPVIASLYLGIIVAPVNDKYIERELIHSLGIVKPRIVFCSKNTFQKVLNVKSKLKSIETIIILDLNEDLGGYQCLNNFISQNSDSNLDVKKFKPYSFNRDDQVASIMFSSGTTGLPKGVMLTHKNIVARFSIAKDPTFGNAINPTSAILTVIPFHHGFGMMTTLGYFTCGFRVVLMHTFEEKLFLQSLQDYKVESTLLVPTLMAFLAKSALVEKYDLSHLKEIASGGAPLSKEIGEMVKKRFKLNFVRQGYGLTETTSAVLITPKGV
Take B1: the “RESPONSE, IMPROVEMENT OVER TL-CP358-DEVD:DD” value (Table 1, fold-induction, normalized to parental) was determined as 3.6 fold. Also, under “Table 1, normalized biosensor luminescence at TRAIL addition, HEK293, normalized to parental”, the “BASAL, IMPROVEMENT OVER TL-CP358-DEVD:DD” value turned out to be 0.2 fold. Besides, the “INDUCED, IMPROVEMENT OVER TL-CP358-DEVD:DD” value (Table 1, normalized luminescence roughly 10 hrs after 1 μg/mL TRAIL, HEK293, normalized to parental) was 0.6 fold. The “greater RESPONSE compared with TL-CP358-DEVD:DD” value is recorded as 2 times (after 2 hrs TRAIL treatment) and “about 4.8 times” (after 10 hrs TRAIL treatment).

B2: FC7: 24: CBS variant, 193SP 471IT 503SG 507TI (SEQ ID NOs:9 and 10) (protein)
chain: MPGSTGKIVPLHAVKVVDPTTGKILGPNEPGELYFKGPMIMKGYYNNEEATKAIIDNDGWLRSGDIAYYDNDGHFYIVDRLKSLIKYKGYQVAPAEIEGILLQHPYIVDAGVTGTPDEAAGELPAAGVVVQTGKYLNEQIVQDYVAGQVSIAKWLRGGVKFLDEIPKGSTGKIDRKVLRQMLEKHTNGSDEVDGSLKNILYGPEPFYPLEDGTAGEQMFDALSRYAAIPGCIALTNAHTKENVLYEEFLKLSCRLAESFKKYGLKQNDTIAVCSENSLQFFLPVIASLYLGIIVAPVNDKYIERELIHSLGIVKPRIVFCSKNTFQKVLNVKSKLKSIETIIILDLNEDLGGYQCLNNFISQNSDSNLDVKKFKPYSFNRDDQVAPIMFSSGTTGLPKGVMLTHKNIVARFSIAKDPTFGNAINPTSAILTVIPFHHGFGMMTTLGYFTCGFRVVLMHTFEEKLFLQSLQDYKVESTLLVPTLMAFLAKSALVEKYDLSHLKEIASGGAPLSKEIGEMVKKRFKLNFVRQGYGLTETTSAVLITPKGV
B2: the “RESPONSE, IMPROVEMENT OVER TL-CP358-DEVD:DD” value (Table 2 combination variants) is given as 5.480 fold. The “INDUCED, IMPROVEMENT OVER TL-CP358-DEVD:DD” value under setting [1] came to 0.191 fold. Further, the “BASAL, IMPROVEMENT OVER TL-CP358-DEVD:DD” value under setting [2] worked out at 0.035 fold. In addition, for the setting “after 2 hrs TRAIL treatment”, the “greater RESPONSE compared with TL-CP358-DEVD:DD” value is recorded as “about 2 times”.

B3: FC7: 43: CBS variant, 471IT 503SG 507TI (SEQ ID NOs:11 and 12) (protein)
chain: MPGSTGKIVPLHAVKVVDPTTGKILGPNEPGELYFKGPMIMKGYYNNEEATKAIIDNDGWLRSGDIAYYDNDGHFYIVDRLKSLIKYKGYQVAPAEIEGILLQHPYIVDAGVTGTPDEAAGELPAAGVVVQTGKYLNEQIVQDYVAGQVSIAKWLRGGVKFLDEIPKGSTGKIDRKVLRQMLEKHTNGSDEVDGSLKNILYGPEPFYPLEDGTAGEQMFDALSRYAAIPGCIALTNAHTKENVLYEEFLKLSCRLAESFKKYGLKQNDTIAVCSENSLQFFLPVIASLYLGIIVAPVNDKYIERELIHSLGIVKPRIVFCSKNTFQKVLNVKSKLKSIETIIILDLNEDLGGYQCLNNFISQNSDSNLDVKKFKPYSFNRDDQVASIMFSSGTTGLPKGVMLTHKNIVARFSIAKDPTFGNAINPTSAILTVIPFHHGFGMMTTLGYFTCGFRVVLMHTFEEKLFLQSLQDYKVESTLLVPTLMAFLAKSALVEKYDLSHLKEIASGGAPLSKEIGEMVKKRFKLNFVRQGYGLTETTSAVLITPKGV
In the case of B3, the “RESPONSE, IMPROVEMENT OVER TL-CP358-DEVD:DD” value (Table 2 combination variants) is 6.735 fold. Besides, the “INDUCED, IMPROVEMENT OVER TL-CP358-DEVD:DD” value under setting [1] is on record as 0.189 fold. Under setting [2], the “BASAL, IMPROVEMENT OVER TL-CP358-DEVD:DD” value came to 0.028 fold. Besides, the “greater RESPONSE compared with TL-CP358-DEVD:DD” value (after 10 hrs TRAIL treatment) is given as “about 2.2 times”.

B4: FC7: 49: CBS variant, 193SP 503SG 507TI (SEQ ID NOs:13 and 14) (protein)
chain: MPGSTGKIVPLHAVKVVDPTTGKILGPNEPGELYFKGPMIMKGYYNNEEATKAIIDNDGWLRSGDIAYYDNDGHFYIVDRLKSLIKYKGYQVAPAEIEGILLQHPYIVDAGVTGIPDEAAGELPAAGVVVQTGKYLNEQIVQDYVAGQVSIAKWLRGGVKFLDEIPKGSTGKIDRKVLRQMLEKHTNGSDEVDGSLKNILYGPEPFYPLEDGTAGEQMFDALSRYAAIPGCIALTNAHTKENVLYEEFLKLSCRLAESFKKYGLKQNDTIAVCSENSLQFFLPVIASLYLGIIVAPVNDKYIERELIHSLGIVKPRIVFCSKNTFQKVLNVKSKLKSIETIIILDLNEDLGGYQCLNNFISQNSDSNLDVKKFKPYSFNRDDQVAPIMFSSGTTGLPKGVMLTHKNIVARFSIAKDPTFGNAINPTSAILTVIPFHHGFGMMTTLGYFTCGFRVVLMHTFEEKLFLQSLQDYKVESTLLVPTLMAFLAKSALVEKYDLSHLKEIASGGAPLSKEIGEMVKKRFKLNFVRQGYGLTETTSAVLITPKGV
In the case of B4, the “RESPONSE, IMPROVEMENT OVER TL-CP358-DEVD:DD” value (Table 2 combination variants) worked out at 5.115 fold. Besides, the “INDUCED, IMPROVEMENT OVER TL-CP358-DEVD:DD” value under setting [1] worked out at 0.852 fold. For the same molecule, under setting [2], the “BASAL, IMPROVEMENT OVER TL-CP358-DEVD:DD” value was 0.167 fold. In addition, the “greater RESPONSE compared with TL-CP358-DEVD:DD” value (after 2 hrs TRAIL treatment) is reported as “about 2 times”.
